This is an account of results in patent US7785829 (Biogen, dated 2010).

The target in assay [1] is T1, human NgR1 receptor expressed on COS7 cells (human, UniProt Q9BZR6 27-447).
T1 construct: whole, on cells; also called Nogo receptor-1; nogo receptor-1
T1 sequence (looked up): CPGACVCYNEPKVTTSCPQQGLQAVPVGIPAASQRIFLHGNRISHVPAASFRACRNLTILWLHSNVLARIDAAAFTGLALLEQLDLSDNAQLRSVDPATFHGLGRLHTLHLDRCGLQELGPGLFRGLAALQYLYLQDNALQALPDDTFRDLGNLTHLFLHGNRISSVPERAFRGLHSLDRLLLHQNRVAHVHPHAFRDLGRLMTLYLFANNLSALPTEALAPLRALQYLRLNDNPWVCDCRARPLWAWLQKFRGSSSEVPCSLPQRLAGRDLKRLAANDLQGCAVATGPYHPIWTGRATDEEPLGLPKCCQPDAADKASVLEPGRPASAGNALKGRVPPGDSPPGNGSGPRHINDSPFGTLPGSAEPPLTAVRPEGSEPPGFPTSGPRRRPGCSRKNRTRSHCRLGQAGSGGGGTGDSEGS
The assay is described as follows: mutant AP-Sp35 construct tested for NgR1 binding.

In assay [2] the target is His-AP-Sp35 fusion protein (His-tagged alkaline phosphatase fused to the extracellular domain of Sp35, a.a. 34-532) (human) (UniProt P05187). The assay is described as follows: competition ELISA; AP-Sp35 pre-incubated with 100-fold excess of soluble sNgR344-Fc, immobilized sNgR344-Fc.
The target of assay [3] is T1, human NgR1 receptor expressed on COS7 …. The assay is described as follows: AP-Sp35 titration on NgR1-transfected COS7 cells, AP activity with 4-nitrophenyl phosphate.

In general, EC50 refers to the concentration needed to bring the measured effect to its halfway point.

B1: His-AP-Sp35 (34-532) with amino acid 456 mutated from arginine to glutamic acid and amino acid 458 from histidine to valine (other)
chain: TGCPPRCECSAQDRAVLCHRKRFVAVPEGIPTETRLLDLGKNRIKTLNQDEFASFPHLEELELNENIVSAVEPGAFNNLFNLRTLGLRSNRLKLIPLGVFTGLSNLTKLDISENKIVILLDYMFQDLYNLKSLEVGDNDLVYISHRAFSGLNSLEQLTLEKCNLTSIPTEALSHLHGLIVLRLRHLNINAIRDYSFKRLYRLKVLEISHWPYLDTMTPNCLYGLNLTSLSITHCNLTAVPYLAVRHLVYLRFLNLSYNPISTIEGSMLHELLRLQEIQLVGGQLAVVEPYAFRGLNYLRVLNVSGNQLTTLEESVFHSVGNLETLILDSNPLACDCRLLWVFRRRWRLNFNRQQPTCATPEFVQGKEFKDFPDVLLPNYFTCRRARIRDRKAQQVFVDEGHTVQFVCRADGDPPPAILWLSPEKVLVSAKSNGRLTVFPDGTLEVRYAQVQDNGTYLCIAANAGGNDSMPAHLHVRSYSPDWPHQPNKTFAFISNQPGE
notes: also called Sp35 construct in which residues R at 456 and H at 458 were changed into E and V; not shown: N-terminal His tag and alkaline phosphatase (AP) reporter of the His-AP vector, with any junction residues
For B1, the “fold drop in signal (against the unmutated construct)” value in assay [1] was greater than 10 fold.

B2: sNgR344-Fc (rat NgR1 peptide 35-344 fused to the rat IgG1) (Fc fusion, UniProt Q99M75 35-344, looked up, not shown: a dimerising Fc or GST)
chain: NEPKVTTSCPQQGLQAVPTGIPASSQRIFLHGNRISYVPAASFQSCRNLTILWLHSNALAGIDAAAFTGLTLLEQLDLSDNAQLRVVDPTTFRGLGHLHTLHLDRCGLQELGPGLFRGLAALQYLYLQDNNLQALPDNTFRDLGNLTHLFLHGNRIPSVPEHAFRGLHSLDRLLLHQNHVARVHPHAFRDLGRLMTLYLFANNLSMLPAEVLVPLRSLQYLRLNDNPWVCDCRARPLWAWLQKFRGSSSEVPCNLPQRLAGRDLKRLAASDLEGCAVASGPFRPFQTNQLTDEELLGLPKCCQPDAADKA
Consider B2, for which the percent competition of binding in assay [2] came out at 80%.

B3: His-AP-Sp35 fusion protein (His-tagged alkaline phosphatase fused to the extracellular domain of Sp35, a.a. 34-532) (other, human)
chain: IIPVEEENPDFWNREAAEALGAAKKLQPAQTAAKNLIIFLGDGMGVSTVTAARILKGQKKDKLGPEIPLAMDRFPYVALSKTYNVDKHVPDSGATATAYLCGVKGNFQTIGLSAAARFNQCNTTRGNEVISVMNRAKKAGKSVGVVTTTRVQHASPAGTYAHTVNRNWYSDADVPASARQEGCQDIATQLISNMDIDVILGGGRKYMFRMGTPDPEYPDDYSQGGTRLDGKNLVQEWLAKRQGARYVWNRTELMQASLDPSVTHLMGLFEPGDMKYEIHRDSTLDPSLMEMTEAALRLLSRNPRGFFLFVEGGRIDHGHHESRAYRALTETIMFDDAIERAGQLTSEEDTLSLVTADHSHVFSFGGYPLRGSSIFGLAPGKARDRKAYTVLLYGNGPGYVLKDGARPDVTESESGSPEYRQQSAVPLDEETHAGEDVAVFARGPQAHLVHGVQEQTFIAHVMAFAACLEPYTACDLAPPAGTTDAAHPGTGCPPRCECSAQDRAVLCHRKRFVAVPEGIPTETRLLDLGKNRIKTLNQDEFASFPHLEELELNENIVSAVEPGAFNNLFNLRTLGLRSNRLKLIPLGVFTGLSNLTKLDISENKIVILLDYMFQDLYNLKSLEVGDNDLVYISHRAFSGLNSLEQLTLEKCNLTSIPTEALSHLHGLIVLRLRHLNINAIRDYSFKRLYRLKVLEISHWPYLDTMTPNCLYGLNLTSLSITHCNLTAVPYLAVRHLVYLRFLNLSYNPISTIEGSMLHELLRLQEIQLVGGQLAVVEPYAFRGLNYLRVLNVSGNQLTTLEESVFHSVGNLETLILDSNPLACDCRLLWVFRRRWRLNFNRQQPTCATPEFVQGKEFKDFPDVLLPNYFTCRRARIRDRKAQQVFVDEGHTVQFVCRADGDPPPAILWLSPRKHLVSAKSNGRLTVFPDGTLEVRYAQVQDNGTYLCIAANAGGNDSMPAHLHVRSYSPDWPHQPNKTFAFISNQPGE
notes: Order His-AP-Sp35 as in the name; also called alkaline phosphatase-Sp35 conjugate; His-AP-Sp35 (34-532); not shown: His tag
For the molecule B3, the EC50 in assay [3] was roughly 6 nM.
